# Test results reported in the domain aggregation screens of Martell et al. (2025).
# Assay: soluble fraction after stress (log2 fold change); higher = more stays soluble; pooled small domains, quantitative proteomics
# Details: stress: 50 degC
# Summary of the method: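 Each library was heated to 50°C as a stress step. The libraries, made up of small protein domains, were pooled and analysed at high throughput by quantitative proteomics. The reported value is the base-two logarithm of the fold change in each protein's soluble amount after stress, taken as a measure of aggregation propensity. The higher the value, the more protein stays in solution.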
row,Sequence,soluble fraction (log2)
1,HMSPVPRIEIELTSSKEDGSWTWRAVGAREPRGSLDGALLAKPAAVGDVLRVETDQFLDGMTVTAILPPRD,-0.325
2,HMNAQLTTIPDLDGMNMRAATAMLSSLGLEVKRIGSGTVFAQFPKAGAAMRPGSMVTIRGKAKSL,-0.355
3,HMKPSVEIKVNGGTGAGVVKKGGSITVTANEPAEGKVFTGWQDESGKIVSTQKEYTFTVAEGTTLTAVYED,0.45
4,HMASFGDLSGLKRTYPPQGLPDASRIADFLIARNEGDLSVEQVKALERFLFEHPDHERTARLVAATRVPA,-0.0263
5,HMDAPHPSVVQVYFESRDRSWTYYNDRFDLHEGDLVYVEGKLEGVRGRVVEVSYNFRIKLADYKRVIAVA,-3.66
6,HMGTGQTNEKLAVLTNIQKTQEQILLTLGAKNPLVNLKQYRETLAKILSLSGYKNSNEFFLDPM,-0.0851
7,HMAFEDYAGEYRSAADFAESLHEDTGTEIPESLRYYIDWQALARDMALNGEIMVFQTGFDEVHIFWS,-0.517
8,HMFDREKFIKLGQEFARVAFENVNKRATDRALKTAAKHYGLPSADELLARLGSSEIAARDVVAELYPNL,-0.34
9,HMVFTEEERAEYREKMLDAGFDLLKQYGMTHMSVAKITEAAGIGVSTFYNFFSSKEEYVYEVLQYRRRK,-1.25
10,HMADLTEEQKTLFRLIRDLQPVSSKTLLENSGFTRSTQTRLLNGLIEKQIVIRTGNGPATRYSLR,-0.246
11,HMLKVHPRDQEENRLLLLKGERLYEESTGDTRVMIDMWLRKFEEALNSRSRENIEDARRELKEQLAELDN,-0.00144
12,HMEDVSTLAVKQRIDDLVKQENPAKPLSDSDIVARLKTDGIYIARRTVAKYRMELNIPSSSARKRAQQFS,-0.833
13,HMDVPTEEAILAYNNVPIELAAKFIGWSDITIRYALQEERAPFGMAAQNPKTGTWSYNISPGLLLKYKSGE,-2.11
14,HMDHKSSYWSVKEANLFPELLKQFGSQWSLISDKLGTKSTTMVRNYYQRNAAQLGWKSVVEEADFKRNA,-0.436
15,HMATVPNVVGLSEEKAKSRLANNGLNVSVTTEEVSDKSKDGIVSSQTSEGDTVKQGATITITVGKYVEK,0.14
16,HMLQVRRILQLLADGYSKRQISQQTAVSRNTIDSYEDRFHLTGKSYQELLSMEDGELSGIVYP,-0.424
17,HMSAPNPGQMHSWTDTQGRTLQATFIKADATTVTLNWNGRIVPIPLANLNAASQKLARELASAS,0.181
18,HMLLSYDIAEYIEKYIHEHGLQPGDRLPTERELAAQLDITRVSVRQGYKRLLDQGVIRSENGYYVNPPR,-1.34
19,HMEFSYLEEIGHEKGDLIKGLQLIQQKEGYVSDDAVRAVAENFGMSPAEVEGVLTFYAQFKR,-0.061
20,HMARTTIATPWDKINDLLQGGLGNGDFGLIFGNPGGGKSWSLVALGGFAVKLGYNVIHYTLE,-0.054
21,HMDHKSQLQEWAQSTLGETPRYVTIAETGPDHDKELTVELIIGRKSYSIAKGKSKKQAEQSAARIALGLLM,-0.653
22,HMIYGNGVTDLKDLANGATIIIPADDSNETRALFLLQQEGLIKLPDDADAAKGVSTLDIVDGGGWVTSM,0.0431
23,HMGPNYYDILEIPTDASPSEITQAFRKKALEWHPDKNPNNLEEATSRFIEIVEAYRVLSSKDSKLQYDTG,0.0242
24,HMNTTLQLDTILRLEKNAHLLENFVRAGFTDSELGKLTDADLLQIGVPKIGDRRRLLAALAERAH,-0.589
25,HMSSVMMPDLTGESAIVAMERLQQLGLLPKVEEVDSYREPGIVLEQLPRAGEKIKRGRIAILKVSS,-0.26
26,HMQGENDVTIDPKKLTIGDLAKEISKIEDSEELNNILVAEKEGKGRKGAINAITERIENVSGGTG,0.133
27,HMIQKTHPALEIVKEYFSSQAASEFEAERFFNYYTSNGWLIGGKTKMKDWQAAARNWILNTAK,-0.199
28,HMATTTEPTSPPAATASLEAKINWLFLIFRNKKTVTASEQKFHAEDASTVVGKETLTDDGTTMTKGETAAG,0.0862

row,Sequence,soluble fraction (log2)
1,HMSALIGAHTLERIDSRDFEGVVMAWLPKRDGYDSLYKIYHIEDGDFEELDDREVQAAISLFIEGT,-0.431
2,HMYLNYQTIGKRIRLLRKQQHLTQMTLAEMVDKSPTYISLVENGQKGPSLETLIDVANALKVTMDVLLAEY,-4.39
3,HMSILSIGLERGMKKGVAWGIAKSILDILEETGPVSEKTREMIVTETDAERLSAWVKKAARSNSEEDFLSK,-0.631
4,HMKNYALHEPMMDRIAKVNALYDAGHTIKYMTARGAVSMVDYYDLTKSQLDSWGAKYHELSVGK,-0.0372
5,HMAGPAGASEVANARDGDDETPLHMAARGGYPGIVRMLLAAGAKADAKSAAGLFPWNYAEDGSELHALLPR,0.0684
6,HMDKQGGWLTMAEAAEKLGVTHHVIRRLIKEKILPAEQVMRHAPHQIRIVDLESDAVAEALRHR,-0.215
7,HMGGLALAEREVVEWLSQRNLLPSPDVVARAAAHPDGLGWLERSLAVLEGPRLFLGLGDLVPEP,-0.411
8,HMRQYKEMPYRLFLIHLGKGLVDEVELSDKAKLTGKLKNGKIFITDNPRTENFKEQLLLHDVKVKEG,0.12
9,HMKSNKEKIYDFIQMHDTAEKEGGVSTTYIAQALSLQRTNVSSLLNALVEEGRIHKSNGRPVLYSIAG,0.0955
10,HMKIDEVSFAYIERTLFSMLGKLPTPVNKVIATIGEEKKETIWEVIRFLESENKLITNEDGTLQL,-1.55
11,HMNIETHIVPKLLAPIRLQEYGVGIFNNIPTKSALKKALKKQLITVDKTVATTATFIKGGETIELAYQ,-1.47
12,HMGKQIKEIVEEYYDSTSKNSPVGGSWKTSLDGVDLTSPNITIWTRTKIKYVDGSESIVTPQSL,-0.0357
13,HMPSTVSVPDVAGSSLSEAKTTIKSSGLKVGTVHKVSSDTVESGYVIKTSPTAGSSKKEGSSIDIYVSKG,0.432
14,HMLNSLDATQRLKLNKDGVVVFNFGKYVDQSVIDIFKKEKGYYNWMMSKDFSQQVKNIITKIYQEEIIG,-0.982
15,HMDFNNQLKRIRESNGLTQEQLAKILNVSRQSISSWEVGRNFPDLEMIVIISKEFNISLDQLIMG,-2.82
16,HMDLRIKEIMSERNVTSAWLAEKVGISKVAVSNIVTGKSSPSLDNLLKIADALNVSITTLIG,-0.824
17,HMDSVTLGISFNGKTRFTLDFPADAAAADIEKAALEAEQSQRYLEGMTVAKVIVVPGRIVNIVLK,-0.501
18,HMEAKKVIAVHIIGEINKPGIVELEEGARVIDAIKKAGGTTEKADLAQINLAYILKDGQKIYIPNTEDN,0.0276
19,HMRKLDQRLAGLLLGKGRLVKATHQQLADELGSVREMVSRLLKGFAEHDLVRMSREQIEIVDAAGLRKLAD,-1.33
20,HMSLIDLLQLNRKSKKLTLMNLVEMTGLSYGKVYRIFNGGIDKPTPDSLKLLAKALQLDYSYLFHKAGYL,-0.161
21,HMLLSFYGTYGNVKLTGKELEDLQKEFPFDYQARIDRLSAYMESSGRKYHSHFATIRSWAQDDAKKN,-1.79
22,HMFDGRSDAEKTLDLIKTAIDNILKGGAIQEYKIGTRTAKKYDMAELQVLKGEYAAMVAREKQAETMA,-0.132
23,HMRASQGRNELILSLLRGHELSILELLEGLEKQGVRVARPTLTKDLNELVSRGSVEATAPPRSKNRTYRIP,-0.612
24,HMSRRIEIELTSSRPDGSWTWRAAGAREPKGVLDGTLLSQGSKPGDVVKAEAEFDIDGITIVSITQ,-0.18
25,HMAGHKVDFSELPARSQAFIGKNFPTEMVKNVEMERKDAKDHYTVLLSNGTKVMFDGTSGELTGV,0.0973
26,HMDTQITPNKAKEIALAHAGVTEAAANFKKIKLDNKNGKSIYEIEFIANKSRYEFIVDAKNGSIIKFEK,0.0656
27,HMLGARIAALRRQAGMNQGELAKKLGISPSTVGMYEQGRREPSAEMLVRLAEAFSVSTDFLLT,-4.95e-05
